Values of other authors in article PMC10876879, “Sustained silencing peanut allergy by xanthopurpurin is associated with suppression of peripheral and bone marrow IgE-producing B cell” (Frontiers in Immunology, 2024).

Tested on: IgE
Set-up: method as in PMID 15025403, PMID 12637608
Details: double-blind, randomized trial, 2003

B1: TNX-901: anti-IgE antibody (antibody, chains of the INN, looked up, V domains shown)
VH: QVQLVQSGAEVKKPGASVKVSCKASGYTFSMYWLEWVRQAPGHGLEWVGEISPGTFTTNYNEKFKARATFTADTSTNTAYMELSSLRSEDTAVYYCARFSHFSGSNYDYFDYWGQGTLVTVSS
VL: DILLTQSPGTLSLSPGERATLSCRASQSIGTNIHWYQQKPGQAPRLLIKYASESISGIPSRFSGSGSGTDFTLTISRLEPEDFAMYYCQQSDSWPTTFGQGTKVEIK
Threshold of the sensitivity of patients to peanut: significantly increased
